One block for each binder: values may come before it.
Experiments:
[1] = molecular target: T1, AurA-DN (unphosphorylated Aurora-A 122–403 D274N) (UniProt O14965 122-403, D274N); experiment: NMR; residue pair 520/521
T1 sequence: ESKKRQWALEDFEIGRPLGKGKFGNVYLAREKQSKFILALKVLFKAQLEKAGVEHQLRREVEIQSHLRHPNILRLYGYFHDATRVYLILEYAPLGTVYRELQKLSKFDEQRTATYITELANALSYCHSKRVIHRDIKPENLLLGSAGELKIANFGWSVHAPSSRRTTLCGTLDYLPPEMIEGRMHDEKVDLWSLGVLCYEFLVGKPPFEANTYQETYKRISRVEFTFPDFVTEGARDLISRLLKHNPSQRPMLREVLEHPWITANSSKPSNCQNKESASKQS

[2] = molecular target: T2, complex of AurA-DN/TPX2^1-43 (UniProt O14965 122-403; Q9ULW0 1-43, D274N); experiment: NMR; residue pair 519/520, with TPX2 1-43
[3] = molecular target: T2, complex of AurA-DN/TPX2^1-43; experiment: NMR; residue pair 520/521, with TPX2 1-43
AurA-DN C290A, C393A = molecular target: T3, AurA-DN C290A, C393A (UniProt O14965 122-403, D274N | C290A | C393A); experiment: SEC; AurA-DN C290A, C393A, TPX2^1-43 and TACC3act alone and in complex on a HiLoad Superdex 200 16/60 column; fractions analysed by SDS-PAGE; settings: both partners purified
T3 construct: also called Aurora-A kinase domain (SEC); source: recombinant, purified; not further stated
T3 sequence (looked up): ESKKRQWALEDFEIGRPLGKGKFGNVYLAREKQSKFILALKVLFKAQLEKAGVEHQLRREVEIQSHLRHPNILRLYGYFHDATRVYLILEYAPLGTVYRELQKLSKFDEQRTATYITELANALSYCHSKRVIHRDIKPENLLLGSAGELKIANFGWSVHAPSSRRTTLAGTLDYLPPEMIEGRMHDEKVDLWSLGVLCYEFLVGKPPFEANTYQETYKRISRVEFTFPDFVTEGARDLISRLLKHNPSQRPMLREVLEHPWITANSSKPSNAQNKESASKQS

[4] = molecular target: T4, complex of AurA-DN/TPX2^1-43 (UniProt O14965 122-403; Q9ULW0 1-43, D274N); experiment: NMR titration; 15N-labelled TACC3act (75 uM constant in titrations) with unlabelled AurA-DN or the AurA-DN/TPX2^1-43 complex at 0-225 uM; 1H-15N HSQC; 20 mM potassium phosphate pH 7.0, 50 mM NaCl, 1 mM DTT, 0.02% sodium azide, 5 mM ADP/MgCl2; chemical shift changes fit to Eq 1; settings: both partners purified
T4 construct: TPX2, first 43 amino acids; Added as a complex in the NMR titration; source: mixed from the purified recombinant proteins m8 and m12
T4 sequence (looked up) 1: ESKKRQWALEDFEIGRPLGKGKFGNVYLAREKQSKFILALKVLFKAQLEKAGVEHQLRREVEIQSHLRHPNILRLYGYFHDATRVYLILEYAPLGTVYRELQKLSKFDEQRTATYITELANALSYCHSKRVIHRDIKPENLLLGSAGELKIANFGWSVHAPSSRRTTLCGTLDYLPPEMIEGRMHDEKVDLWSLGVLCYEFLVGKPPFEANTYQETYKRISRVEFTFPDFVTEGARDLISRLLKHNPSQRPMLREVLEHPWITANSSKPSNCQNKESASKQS
T4 sequence (looked up) 2: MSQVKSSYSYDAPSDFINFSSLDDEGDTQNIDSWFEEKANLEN

[5] = molecular target: T5, AurA-DN (unphosphorylated Aurora-A 122–403 D274N) (UniProt O14965 122-403, D274N); experiment: as above; settings: both partners purified
T5 construct: source: recombinant, expressed from pET30TEV, purified (Chelating Sepharose, SEC), dialysed into NMR buffer with 5 mM ADP/MgCl2
T5 sequence (looked up): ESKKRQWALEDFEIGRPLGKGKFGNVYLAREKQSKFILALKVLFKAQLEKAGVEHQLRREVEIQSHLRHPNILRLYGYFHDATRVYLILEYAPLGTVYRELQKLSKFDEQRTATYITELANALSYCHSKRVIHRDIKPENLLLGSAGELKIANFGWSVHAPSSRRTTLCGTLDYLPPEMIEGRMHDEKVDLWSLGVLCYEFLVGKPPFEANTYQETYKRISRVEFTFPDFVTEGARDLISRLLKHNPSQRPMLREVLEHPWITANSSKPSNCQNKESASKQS

[6] = molecular target: T6, Aurora-A 122–403 C290A, C393A (UniProt O14965 122-403, C290A | C393A, labelled with NT-647-NHS dye); experiment: MST; 50 nM NT-647-labelled Aurora-A 122-403 C290A, C393A; TACC3act-H6c constructs 0.2-3950 uM; 50 mM Tris pH 7.6, 150 mM NaCl, 10 mM MgCl2, 5 mM beta-mercaptoethanol, 0.05% TWEEN 20; 25 C; one-site fit (Eq 2); settings: both partners purified
T6 construct: also called labelled Aurora-A; source: recombinant, expressed from pET30TEV, purified (Chelating Sepharose, SEC)
T6 sequence (looked up): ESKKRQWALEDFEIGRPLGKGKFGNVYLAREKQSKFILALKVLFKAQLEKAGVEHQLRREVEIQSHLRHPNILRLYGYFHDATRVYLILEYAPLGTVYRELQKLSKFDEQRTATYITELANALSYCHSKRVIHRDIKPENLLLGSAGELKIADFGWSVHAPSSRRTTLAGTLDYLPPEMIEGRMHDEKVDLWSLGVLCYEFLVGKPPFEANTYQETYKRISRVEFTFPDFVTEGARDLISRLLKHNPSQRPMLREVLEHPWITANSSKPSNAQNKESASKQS

[7] = molecular target: T7, TACC3-H6c (full-length human TACC3 with a C-terminal non-cleavable His-tag) (human, UniProt Q9Y6A5 1-838); experiment: pull-down; GST co-precipitation: 100 ug GST-AurA-DN (2 uM in the TPX2 gradient experiment, with 5 uM TACC3act-H6c and 1-50 uM His6-TPX2^1-43) immobilised on Gluthathione Sepharose 4B; 100 ug TACC3 or TPX2^1-43 added, 2 hrs at 4 C; 50 mM Tris pH 7.5, 150 mM NaCl, 5 mM MgCl2, 5 mM beta-mercaptoethanol, 0.02% TWEEN 20; SDS-PAGE and anti-His6 blot; settings: both partners purified
T7 construct: TACC3, human, full length; also called full-length TACC3; TACC3-H6c WT; source: recombinant, expressed from pET-44C3, purified; not shown: His6, C-terminal, kept

[8] = molecular target: T8, TACC3-H6c phospho-null mutant (SA: S34A, S552A, S558A) (human, UniProt Q9Y6A5 1-838, S34A | S552A | S558A); experiment: as above; settings: both partners purified
T8 construct: TACC3, human, full length, three Aurora-A phosphorylation sites mutated to alanine; source: recombinant, expressed from pET-44C3, purified; not shown: His6, C-terminal, kept

[9] = molecular target: T9, TACC3-H6c phospho-mimic mutant (SE: S34, S552 and S558 mutated to glutamic acid) (human, UniProt Q9Y6A5 1-838, S34 to glutamic acid | S552 to glutamic acid | S558 to glutamic acid); experiment: as above; settings: both partners purified
T9 construct: TACC3, human, full length, three Aurora-A phosphorylation sites mutated to glutamic acid; source: recombinant, expressed from pET-44C3, purified; not shown: His6, C-terminal, kept

- Kd [1]: 7.5 µM
- Kd [2]: 0.6 µM
- Kd [3]: 1.6 µM
- binding result (AurA-DN C290A, C393A): binds
- Kd [4]: 1.1 ± 1.2 µM
- Kd [5]: 8.2 ± 0.8 µM
B1: TACC3act (human TACC3 residues 519–563) (domain or fragment, UniProt Q9Y6A5 519-563, looked up)
chain: ELKEESFRDPAEVLGTGAEVDYLEQFGTSSFKESALRKQSLYLKF
notes: also called ^15N-labelled TACC3act; source: recombinant, expressed from pETM6T1, purified (SEC); 15N- or 15N/13C-labelled for NMR

- Kd [6]: 5.7 ± 0.4 µM
B2: TACC3act-H6c (human TACC3 residues 519–563 with a C-terminal His-tag) (domain or fragment, UniProt Q9Y6A5 519-563, looked up)
chain: ELKEESFRDPAEVLGTGAEVDYLEQFGTSSFKESALRKQSLYLKF
notes: also called TACC3act-H6c WT; WT TACC3act; source: recombinant, construct made by the same method as TACC3-H6c, purified; not shown: His6, C-terminal, kept

- Kd [6]: 152 ± 9.3 µM
B3: TACC3act-H6c F525A (domain or fragment, human, UniProt Q9Y6A5 519-563, looked up)
chain: ELKEESARDPAEVLGTGAEVDYLEQFGTSSFKESALRKQSLYLKF
notes: also called F525A mutant; source: recombinant, purified; not shown: His6, C-terminal, kept

- binding result [7]: binds
- binding result [8]: binds
- binding result [9]: binds
B4: GST-AurA-DN (GST fused to Aurora-A catalytic domain 122–403 D274N) (domain or fragment, UniProt O14965 122-403, looked up)
chain: ESKKRQWALEDFEIGRPLGKGKFGNVYLAREKQSKFILALKVLFKAQLEKAGVEHQLRREVEIQSHLRHPNILRLYGYFHDATRVYLILEYAPLGTVYRELQKLSKFDEQRTATYITELANALSYCHSKRVIHRDIKPENLLLGSAGELKIANFGWSVHAPSSRRTTLCGTLDYLPPEMIEGRMHDEKVDLWSLGVLCYEFLVGKPPFEANTYQETYKRISRVEFTFPDFVTEGARDLISRLLKHNPSQRPMLREVLEHPWITANSSKPSNCQNKESASKQS
notes: also called GST-Aurora-A; source: recombinant, expressed from pGEX-cs, purified (Gluthathione Sepharose 4B, SEC); not shown: GST, N-terminal, kept
